Reference: IntAct's records for PubMed 22982234

B1: Myosin-binding protein C, cardiac-type (Mus musculus), O70468 (parent)
chain: MPEPGKKPVSAFNKKPRSAEVTAGSAAVFEAETERSGVMVRWQRDGSDITANDKYGLAAEGKRHTLTVRDASPDDQGSYAVIAGSSKVKFDLKVTEPAPPEKAESEVAPGAPEEVPAPATELEESVSSPEGSVSVTQDGSAAEHQGAPDDPIGLFLMRPQDGEVTVGGSIVFSARVAGASLLKPPVVKWFKGKWVDLSSKVGQHLQLHDSYDRASKVYLFELHITDAQTTSAGGYRCEVSTKDKFDSCNFNLTVHEAIGSGDLDLRSAFRRTSLAGAGRRTSDSHEDAGTPDFSSLLKKRDSFRRDSKLEAPAEEDVWEILRQAPPSEYERIAFQHGVEACHRPLKRLKGMKQDEKKSTAFQKKLEPAYQVNKGHKIRLTVELADPDAEVKWLKNGQEIQMSGSKYIFESVGAKRTLTISQCSLADDAAYQCVVGGEKCSTELFVKEPPVLITRSLEDQLVMVGQRVEFECEVSEEGAQVKWLKDGVELTREETFKYRFKKDGRKHHLIINEATLEDAGHYAVRTSGGQSLAELIVQEKKLEVYQSIADLAVGAKDQAVFKCEVSDENVRGVWLKNGKELVPDNRIKVSHIGRVHKLTIDDVTPADEADYSFVPEGFACNLSAKLHFMEVKIDFVPRQEPPKIHLDCPGSTPDTIVVVTGNKLRLDVPISGDPAPTVVWQKTVTQGKKASAGPHPDAPEDAGADEEWVFDKKLLCETEGRVRVETTKDRSVFTVEGAEKEDEGVYTVTVKNPVGEDQVNLTVKVIDVPDAPAAPKISNVGEDSCTVQWEPPAYDGGQPVLGYILERKKKKSYRWMRLNFDLLRELSHEARRMIEGVAYEMRVYAVNAVGMSRPSPASQPFMPIGPPGEPTHLAVEDVSDTTVSLKWRPPERVGAGGLDGYSVEYCQEGCSEWTPALQGLTERRSMLVKDLPTGARLLFRVRAHNVAGPGGPIVTKEPVTVQEILQRPRLQLPRHLRQTIQKKVGEPVNLLIPFQGKPRPQVTWTKEGQPLAGEEVSIRNSPTDTILFIRAARRTHSGTYQVTVRIENMEDKATLILQIVDKPSPPQDIRIVETWGFNVALEWKPPQDDGNTEIWGYTVQKADKKTMEWFTVLEHYRRTHCVVSELIIGNGYYFRVFSHNMVGSSDKAAATKEPVFIPRPGITYEPPKYKALDFSEAPSFTQPLANRSIIAGYNAILCCAVRGSPKPKISWFKNGLDLGEDARFRMFCKQGVLTLEIRKPCPYDGGVYVCRATNLQGEAQCECRLEVRVPQ

Variants of: B1
Conditions: with myh6_mouse Myh6, Q02566
myh6_mouse Myh6, Q02566, sequence (Q02566 whole entry): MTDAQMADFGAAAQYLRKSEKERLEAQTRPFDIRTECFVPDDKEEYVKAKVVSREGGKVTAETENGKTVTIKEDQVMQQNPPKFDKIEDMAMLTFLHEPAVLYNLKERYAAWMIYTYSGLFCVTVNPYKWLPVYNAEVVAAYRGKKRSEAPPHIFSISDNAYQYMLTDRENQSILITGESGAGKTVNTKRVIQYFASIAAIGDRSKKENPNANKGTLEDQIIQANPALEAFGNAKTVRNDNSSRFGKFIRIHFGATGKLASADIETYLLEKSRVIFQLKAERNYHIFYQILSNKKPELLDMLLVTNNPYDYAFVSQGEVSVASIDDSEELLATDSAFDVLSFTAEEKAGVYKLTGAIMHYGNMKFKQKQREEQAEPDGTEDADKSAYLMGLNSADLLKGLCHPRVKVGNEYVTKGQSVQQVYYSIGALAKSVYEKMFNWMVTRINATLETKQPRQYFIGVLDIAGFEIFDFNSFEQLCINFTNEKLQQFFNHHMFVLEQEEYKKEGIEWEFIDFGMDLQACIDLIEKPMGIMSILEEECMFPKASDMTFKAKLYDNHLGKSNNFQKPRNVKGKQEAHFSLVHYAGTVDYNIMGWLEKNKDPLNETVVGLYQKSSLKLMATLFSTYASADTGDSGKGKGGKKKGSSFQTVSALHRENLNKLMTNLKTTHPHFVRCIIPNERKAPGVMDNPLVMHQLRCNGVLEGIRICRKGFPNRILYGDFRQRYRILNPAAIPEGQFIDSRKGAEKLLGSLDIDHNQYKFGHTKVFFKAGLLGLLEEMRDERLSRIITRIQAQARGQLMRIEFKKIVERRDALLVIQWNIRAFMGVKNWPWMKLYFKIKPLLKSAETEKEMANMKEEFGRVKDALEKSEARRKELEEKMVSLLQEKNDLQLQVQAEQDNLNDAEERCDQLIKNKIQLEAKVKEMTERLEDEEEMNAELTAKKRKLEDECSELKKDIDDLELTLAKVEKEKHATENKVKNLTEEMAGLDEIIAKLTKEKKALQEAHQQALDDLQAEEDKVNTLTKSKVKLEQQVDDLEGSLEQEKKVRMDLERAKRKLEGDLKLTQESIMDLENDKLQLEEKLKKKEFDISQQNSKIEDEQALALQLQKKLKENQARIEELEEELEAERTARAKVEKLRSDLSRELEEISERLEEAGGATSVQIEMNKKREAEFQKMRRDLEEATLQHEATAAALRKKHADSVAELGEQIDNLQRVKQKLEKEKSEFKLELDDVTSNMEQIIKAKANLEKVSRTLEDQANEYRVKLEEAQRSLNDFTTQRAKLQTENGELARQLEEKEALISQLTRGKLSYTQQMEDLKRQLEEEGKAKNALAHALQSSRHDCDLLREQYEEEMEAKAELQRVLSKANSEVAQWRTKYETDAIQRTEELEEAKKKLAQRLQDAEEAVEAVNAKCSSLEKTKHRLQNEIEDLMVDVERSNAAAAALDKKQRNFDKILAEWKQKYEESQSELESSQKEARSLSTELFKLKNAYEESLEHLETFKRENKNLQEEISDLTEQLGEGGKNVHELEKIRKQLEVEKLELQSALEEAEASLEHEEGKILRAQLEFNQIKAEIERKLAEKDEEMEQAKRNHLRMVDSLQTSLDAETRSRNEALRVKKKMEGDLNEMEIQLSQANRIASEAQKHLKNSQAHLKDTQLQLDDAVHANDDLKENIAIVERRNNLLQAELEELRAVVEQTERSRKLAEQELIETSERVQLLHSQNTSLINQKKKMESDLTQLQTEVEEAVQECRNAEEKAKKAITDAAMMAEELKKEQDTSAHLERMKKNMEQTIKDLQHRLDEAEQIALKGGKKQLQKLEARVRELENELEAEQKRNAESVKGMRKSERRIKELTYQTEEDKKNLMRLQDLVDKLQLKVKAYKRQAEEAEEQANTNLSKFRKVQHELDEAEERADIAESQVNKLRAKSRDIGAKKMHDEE

Effect of a mutation on the interaction, disrupting interaction strength:
K298A;K299A;R300A
R279A;R280A;T281A
K298A;K299A
R266A;R270A;R271A

Variants of: B1
Conditions: with actc_mouse Actc1, P68033

Effect of a mutation on the interaction, disrupting interaction strength:
R279A;R280A;T281A
K188A;K191A;K193A
R304A;R305A
R279A;R280A
